# Experimental data reported in PMC9482650, “Quantitative fragmentomics allow affinity mapping of interactomes” (Nature Communications, 2022).
# T1: APBA1_1, Q02410
# T1 sequence (Q02410 651-752, limits assumed, looked up): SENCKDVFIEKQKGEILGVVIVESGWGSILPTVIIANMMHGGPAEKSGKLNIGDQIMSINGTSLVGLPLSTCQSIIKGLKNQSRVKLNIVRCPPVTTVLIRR
# T2: APBA1_2, Q02410
# T2 sequence (Q02410 742-832, limits assumed, looked up): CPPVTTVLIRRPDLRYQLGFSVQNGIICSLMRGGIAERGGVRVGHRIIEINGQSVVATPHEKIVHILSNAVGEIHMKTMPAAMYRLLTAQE
# T3: DFNB31_2, Q9P202
# T3 sequence (Q9P202 274-371, limits assumed, looked up): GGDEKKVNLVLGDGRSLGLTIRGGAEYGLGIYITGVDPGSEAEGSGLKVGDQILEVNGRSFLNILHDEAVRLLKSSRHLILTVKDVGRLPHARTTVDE
# T4: DLG3_3, Q92796
# T4 sequence (Q92796 374-475, limits assumed, looked up): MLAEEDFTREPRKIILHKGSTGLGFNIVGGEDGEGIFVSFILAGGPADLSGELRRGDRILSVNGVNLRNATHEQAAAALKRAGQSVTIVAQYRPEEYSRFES
# T5: DVL3, Q92997
# T5 sequence (Q92997 244-331, limits assumed, looked up): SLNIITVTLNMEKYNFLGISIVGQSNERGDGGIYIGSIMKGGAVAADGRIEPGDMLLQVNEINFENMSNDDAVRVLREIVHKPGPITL
# T6: FRMPD1, Q5SYB0
# T6 sequence (Q5SYB0 52-145, limits assumed, looked up): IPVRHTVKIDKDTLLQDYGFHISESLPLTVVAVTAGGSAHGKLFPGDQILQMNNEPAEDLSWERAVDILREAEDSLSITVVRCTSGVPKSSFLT
# T7: GRIP1_5, Q9Y3R0
# T7 sequence (Q9Y3R0 568-668, limits assumed, looked up): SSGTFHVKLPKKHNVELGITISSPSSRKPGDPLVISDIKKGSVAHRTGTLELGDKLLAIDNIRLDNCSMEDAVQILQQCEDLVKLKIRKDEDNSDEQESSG
# T8: HTRA3, P83110
# T8 sequence (P83110 354-453, limits assumed, looked up): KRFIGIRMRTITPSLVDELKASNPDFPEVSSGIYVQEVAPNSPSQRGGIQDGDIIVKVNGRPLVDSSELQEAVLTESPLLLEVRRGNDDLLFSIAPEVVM
# T9: LNX2_2, Q8N448
# T9 sequence (Q8N448 334-432, limits assumed, looked up): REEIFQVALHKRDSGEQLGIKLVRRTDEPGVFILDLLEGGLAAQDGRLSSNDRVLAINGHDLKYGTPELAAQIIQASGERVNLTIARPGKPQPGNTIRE
# What was measured:
# Assay in all cases: holdup assay
# Design in all cases: key: below the threshold = too weak to quantify, mostly under pKd 3.1 to 4
# [1] = target: AHNAK1, Q09666
# [2] = target: T1, APBA1_1, Q02410
# [3] = target: T2, APBA1_2, Q02410
# [4] = target: T3, DFNB31_2, Q9P202
# [5] = target: DLG1_2, Q12959
# [6] = target: DLG1_3, Q12959
# [7] = target: T4, DLG3_3, Q92796
# [8] = target: T5, DVL3, Q92997
# [9] = target: T6, FRMPD1, Q5SYB0
# [10] = target: FRMPD3, Q5JV73
# [11] = target: GOPC, Q9HD26
# [12] = target: T7, GRIP1_5, Q9Y3R0
# [13] = target: GRIP2_3, Q9C0E4
# [14] = target: T8, HTRA3, P83110
# [15] = target: Inadl_10, Q8NI35
# [16] = target: Inadl_4, Q8NI35
# [17] = target: Inadl_5, Q8NI35
# [18] = target: Inadl_8, Q8NI35
# [19] = target: Inadl_9, Q8NI35
# [20] = target: T9, LNX2_2, Q8N448
# [21] = target: NHERF4_1, Q86UT5-2
# [22] = target: NOS1, P29475
# [23] = target: PDLIM1, O00151
# [24] = target: PDZRN4_1, Q6ZMN7
# [25] = target: PTPN3, P26045
# [26] = target: SCRIB_1, Q14160
# [27] = target: SCRIB_3, Q14160
# [28] = target: TJP1_3, Q07157
# [29] = target: TJP2_1, Q9UDY2
# [30] = plain residues with an end cap or a label only (N-terminal biotin on a linker: ahx)
# [31] = plain residues with an end cap or a label only (N-terminal biotin on a linker: ado-ado)
# SCRIB_1, Q14160, sequence (Q14160 718-814): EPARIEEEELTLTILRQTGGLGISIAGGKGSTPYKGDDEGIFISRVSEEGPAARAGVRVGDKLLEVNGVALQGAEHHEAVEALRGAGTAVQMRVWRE
# NHERF4_1, Q86UT5-2, sequence (Q86UT5 other isoform, or with tags, fused parts or gaps): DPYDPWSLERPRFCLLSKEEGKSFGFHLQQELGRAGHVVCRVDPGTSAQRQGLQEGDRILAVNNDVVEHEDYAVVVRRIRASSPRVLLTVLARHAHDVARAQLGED
# GRIP2_3, Q9C0E4, sequence (Q9C0E4 238-339): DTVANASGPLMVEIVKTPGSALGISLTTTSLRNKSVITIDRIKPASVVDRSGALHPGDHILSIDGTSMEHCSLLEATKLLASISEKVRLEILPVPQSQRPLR
# DLG1_3, Q12959, sequence (Q12959 457-571): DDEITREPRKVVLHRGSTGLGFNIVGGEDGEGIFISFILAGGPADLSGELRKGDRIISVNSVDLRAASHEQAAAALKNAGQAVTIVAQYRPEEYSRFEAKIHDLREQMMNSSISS
# Inadl_4, Q8NI35, sequence (Q8NI35 547-651): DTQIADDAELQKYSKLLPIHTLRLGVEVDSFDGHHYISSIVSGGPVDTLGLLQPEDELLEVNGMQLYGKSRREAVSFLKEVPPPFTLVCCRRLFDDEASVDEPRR
# PDZRN4_1, Q6ZMN7, sequence (Q6ZMN7 213-318): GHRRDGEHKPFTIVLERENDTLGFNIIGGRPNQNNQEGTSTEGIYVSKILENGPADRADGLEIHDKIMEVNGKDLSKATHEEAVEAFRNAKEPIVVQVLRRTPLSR
# TJP1_3, Q07157, sequence (Q07157 416-512): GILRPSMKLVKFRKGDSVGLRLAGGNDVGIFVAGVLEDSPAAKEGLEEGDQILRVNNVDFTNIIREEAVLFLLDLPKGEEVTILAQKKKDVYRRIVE
# SCRIB_3, Q14160, sequence (Q14160 999-1103): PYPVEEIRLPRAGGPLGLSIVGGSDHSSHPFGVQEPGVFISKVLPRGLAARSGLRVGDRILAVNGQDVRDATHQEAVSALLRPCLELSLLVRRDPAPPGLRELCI
# Inadl_10, Q8NI35, sequence (Q8NI35 1673-1763): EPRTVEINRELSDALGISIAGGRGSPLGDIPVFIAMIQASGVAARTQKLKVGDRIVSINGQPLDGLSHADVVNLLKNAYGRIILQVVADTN
# PTPN3, P26045, sequence (P26045 505-587): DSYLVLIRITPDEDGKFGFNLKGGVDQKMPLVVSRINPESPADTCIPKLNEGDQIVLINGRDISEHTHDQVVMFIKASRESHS
# AHNAK1, Q09666, sequence (Q09666 4-100): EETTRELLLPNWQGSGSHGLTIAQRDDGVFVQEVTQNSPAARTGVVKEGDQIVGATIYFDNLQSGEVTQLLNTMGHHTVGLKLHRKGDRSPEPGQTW
# TJP2_1, Q9UDY2, sequence (Q9UDY2 24-128): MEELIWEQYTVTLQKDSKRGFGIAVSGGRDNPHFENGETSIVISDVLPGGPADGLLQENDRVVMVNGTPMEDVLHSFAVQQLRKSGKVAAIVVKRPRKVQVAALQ
# Inadl_9, Q8NI35, sequence (Q8NI35 1530-1615): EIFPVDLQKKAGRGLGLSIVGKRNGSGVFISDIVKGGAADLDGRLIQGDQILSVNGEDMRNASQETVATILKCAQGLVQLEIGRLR
# NOS1, P29475, sequence (P29475 9-101): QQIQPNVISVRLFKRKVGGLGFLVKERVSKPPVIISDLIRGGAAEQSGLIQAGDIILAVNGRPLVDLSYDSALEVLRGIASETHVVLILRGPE
# FRMPD3, Q5JV73, sequence (Q5JV73 12-100): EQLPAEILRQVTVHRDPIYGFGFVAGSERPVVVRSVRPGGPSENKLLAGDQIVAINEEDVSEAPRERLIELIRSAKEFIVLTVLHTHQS
# Inadl_8, Q8NI35, sequence (Q8NI35 1425-1530): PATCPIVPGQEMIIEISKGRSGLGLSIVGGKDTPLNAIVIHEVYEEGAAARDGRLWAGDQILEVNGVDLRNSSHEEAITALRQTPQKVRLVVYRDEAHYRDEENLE
# DLG1_2, Q12959, sequence (Q12959 314-412): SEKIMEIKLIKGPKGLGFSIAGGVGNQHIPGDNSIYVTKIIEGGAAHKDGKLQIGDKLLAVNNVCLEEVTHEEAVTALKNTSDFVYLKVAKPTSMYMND
# PDLIM1, O00151, sequence (O00151 1-87): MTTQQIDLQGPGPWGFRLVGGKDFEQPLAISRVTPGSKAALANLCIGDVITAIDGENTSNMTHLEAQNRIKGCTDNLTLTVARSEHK
# Inadl_5, Q8NI35, sequence (Q8NI35 673-780): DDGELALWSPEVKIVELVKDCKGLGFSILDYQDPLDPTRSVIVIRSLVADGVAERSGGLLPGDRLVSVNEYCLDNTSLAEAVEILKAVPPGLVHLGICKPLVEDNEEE
binder,measurement,setting,value
"APSRKLNTEI [TIAM1, Q13009]",pKd,[1]; [30],below the threshold
same,pKd,[2]; [30],below the threshold
same,pKd,[3]; [30],below the threshold
same,pKd,[4]; [30],below the threshold
same,pKd,[5]; [30],3.97
same,pKd,[6]; [30],below the threshold
same,pKd,[7]; [30],below the threshold
same,pKd,[8]; [30],below the threshold
same,pKd,[9]; [30],below the threshold
same,pKd,[10]; [30],below the threshold
same,pKd,[11]; [30],below the threshold
same,pKd,[12]; [30],below the threshold
same,pKd,[13]; [30],below the threshold
same,pKd,[14]; [30],below the threshold
same,pKd,[15]; [30],below the threshold
same,pKd,[16]; [30],below the threshold
same,pKd,[17]; [30],below the threshold
same,pKd,[18]; [30],below the threshold
same,pKd,[19]; [30],below the threshold
same,pKd,[20]; [30],below the threshold
same,pKd,[21]; [30],below the threshold
same,pKd,[22]; [30],below the threshold
same,pKd,[23]; [30],below the threshold
same,pKd,[24]; [30],below the threshold
same,pKd,[25]; [30],below the threshold
same,pKd,[26]; [30],below the threshold
same,pKd,[27]; [30],below the threshold
same,pKd,[28]; [30],below the threshold
same,pKd,[29]; [30],below the threshold
"EPQYQPGENL [SRC, P12931]",pKd,[1]; [31],below the threshold
same,pKd,[2]; [31],below the threshold
same,pKd,[3]; [31],3.59
same,pKd,[4]; [31],below the threshold
same,pKd,[5]; [31],below the threshold
same,pKd,[6]; [31],below the threshold
same,pKd,[7]; [31],below the threshold
same,pKd,[8]; [31],below the threshold
same,pKd,[9]; [31],below the threshold
same,pKd,[10]; [31],below the threshold
same,pKd,[11]; [31],below the threshold
same,pKd,[12]; [31],below the threshold
same,pKd,[13]; [31],below the threshold
same,pKd,[14]; [31],below the threshold
same,pKd,[15]; [31],below the threshold
same,pKd,[16]; [31],below the threshold
same,pKd,[17]; [31],below the threshold
same,pKd,[18]; [31],below the threshold
same,pKd,[19]; [31],below the threshold
same,pKd,[20]; [31],below the threshold
same,pKd,[21]; [31],3.59
same,pKd,[22]; [31],below the threshold
same,pKd,[23]; [31],3.56
same,pKd,[24]; [31],3.52
same,pKd,[25]; [31],below the threshold
same,pKd,[26]; [31],3.49
same,pKd,[27]; [31],3.71
same,pKd,[28]; [31],below the threshold
same,pKd,[29]; [31],below the threshold
"DGVNEKVSCV [HTR2A, P28223]",pKd,[1]; [31],below the threshold
same,pKd,[2]; [31],below the threshold
same,pKd,[3]; [31],4
same,pKd,[4]; [31],below the threshold
same,pKd,[5]; [31],4.82
same,pKd,[6]; [31],below the threshold
same,pKd,[7]; [31],below the threshold
same,pKd,[8]; [31],below the threshold
same,pKd,[9]; [31],below the threshold
same,pKd,[10]; [31],below the threshold
same,pKd,[11]; [31],below the threshold
same,pKd,[12]; [31],below the threshold
same,pKd,[13]; [31],below the threshold
same,pKd,[14]; [31],3.94
same,pKd,[15]; [31],below the threshold
same,pKd,[16]; [31],below the threshold
same,pKd,[17]; [31],below the threshold
same,pKd,[18]; [31],4.81
same,pKd,[19]; [31],below the threshold
same,pKd,[20]; [31],4.42
same,pKd,[21]; [31],below the threshold
same,pKd,[22]; [31],3.69
same,pKd,[23]; [31],below the threshold
same,pKd,[24]; [31],below the threshold
same,pKd,[25]; [31],4.86
same,pKd,[26]; [31],below the threshold
same,pKd,[27]; [31],3.97
same,pKd,[28]; [31],below the threshold
same,pKd,[29]; [31],3.82
